Results reported in patent publication US20180155451A1 (published 2018).

The binders below were run against T1, FcγRIIIa extracellular domain with C-terminal His tag (human, UniProt P08637 17-208) (assay: SPR, relative to GpH7-A5/GpH7-B3/GpL16-k0).
T1 construct: extracellular domain; also called FcgRIIIa; 3a
T1 sequence (P08637 17-208): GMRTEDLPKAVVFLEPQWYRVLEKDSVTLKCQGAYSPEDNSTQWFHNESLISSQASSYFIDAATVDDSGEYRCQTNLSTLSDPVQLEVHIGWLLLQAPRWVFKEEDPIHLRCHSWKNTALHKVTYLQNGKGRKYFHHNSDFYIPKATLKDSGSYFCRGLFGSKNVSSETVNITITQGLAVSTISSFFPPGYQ

He/Con_3a	Binder
119 % of control (=100)	GpH7-A5/GpH7-B3 variant I336_10E/GpL16-k0 (antibody, human IgG1, kappa, heterodimerized IgG1, mutation in one H chain only; also called He Ab) heavy 1: not shown heavy 2: not shown light: DIVMTQSPLSLPVTPGEPASISCQASESLVHSNRNTYLHWYLQKPGQSPQLLIYKVSNRFSGVPDRFSGSGSGTDFTLKISRVEAEDVGVYYCSQNTHVPPTFGQGTKVEIERTVAAPSVFIFPPSDEQLKSGTASVVCLLNNFYPREAKVQWKVDNALQSGNSQESVTEQDSKDSTYSLSSTLTLSKADYEKHKVYACEVTHQGLSSPVTKSFNRGEC
148 % of control (=100)	GpH7-A5/GpH7-B3 variant K334_04F/GpL16-k0 (antibody, human IgG1, kappa, heterodimerized IgG1, mutation in one H chain only; also called He Ab) heavy 1: not shown heavy 2: not shown light: DIVMTQSPLSLPVTPGEPASISCQASESLVHSNRNTYLHWYLQKPGQSPQLLIYKVSNRFSGVPDRFSGSGSGTDFTLKISRVEAEDVGVYYCSQNTHVPPTFGQGTKVEIERTVAAPSVFIFPPSDEQLKSGTASVVCLLNNFYPREAKVQWKVDNALQSGNSQESVTEQDSKDSTYSLSSTLTLSKADYEKHKVYACEVTHQGLSSPVTKSFNRGEC
134 % of control (=100)	GpH7-A5/GpH7-B3 variant K334_05P/GpL16-k0 (antibody, human IgG1, kappa, heterodimerized IgG1, mutation in one H chain only; also called He Ab) heavy 1: not shown heavy 2: not shown light: DIVMTQSPLSLPVTPGEPASISCQASESLVHSNRNTYLHWYLQKPGQSPQLLIYKVSNRFSGVPDRFSGSGSGTDFTLKISRVEAEDVGVYYCSQNTHVPPTFGQGTKVEIERTVAAPSVFIFPPSDEQLKSGTASVVCLLNNFYPREAKVQWKVDNALQSGNSQESVTEQDSKDSTYSLSSTLTLSKADYEKHKVYACEVTHQGLSSPVTKSFNRGEC
139 % of control (=100)	GpH7-A5/GpH7-B3 variant K326_07I/GpL16-k0 (antibody, human IgG1, kappa, heterodimerized IgG1, mutation in one H chain only; also called He Ab) heavy 1: not shown heavy 2: not shown light: DIVMTQSPLSLPVTPGEPASISCQASESLVHSNRNTYLHWYLQKPGQSPQLLIYKVSNRFSGVPDRFSGSGSGTDFTLKISRVEAEDVGVYYCSQNTHVPPTFGQGTKVEIERTVAAPSVFIFPPSDEQLKSGTASVVCLLNNFYPREAKVQWKVDNALQSGNSQESVTEQDSKDSTYSLSSTLTLSKADYEKHKVYACEVTHQGLSSPVTKSFNRGEC
103 % of control (=100)	GpH7-A5/GpH7-B3 variant K326_04F/GpL16-k0 (antibody, human IgG1, kappa, heterodimerized IgG1, mutation in one H chain only; also called He Ab) heavy 1: not shown heavy 2: not shown light: DIVMTQSPLSLPVTPGEPASISCQASESLVHSNRNTYLHWYLQKPGQSPQLLIYKVSNRFSGVPDRFSGSGSGTDFTLKISRVEAEDVGVYYCSQNTHVPPTFGQGTKVEIERTVAAPSVFIFPPSDEQLKSGTASVVCLLNNFYPREAKVQWKVDNALQSGNSQESVTEQDSKDSTYSLSSTLTLSKADYEKHKVYACEVTHQGLSSPVTKSFNRGEC
124 % of control (=100)	GpH7-A5/GpH7-B3 variant K326_10E/GpL16-k0 (antibody, human IgG1, kappa, heterodimerized IgG1, mutation in one H chain only; also called He Ab) heavy 1: not shown heavy 2: not shown light: DIVMTQSPLSLPVTPGEPASISCQASESLVHSNRNTYLHWYLQKPGQSPQLLIYKVSNRFSGVPDRFSGSGSGTDFTLKISRVEAEDVGVYYCSQNTHVPPTFGQGTKVEIERTVAAPSVFIFPPSDEQLKSGTASVVCLLNNFYPREAKVQWKVDNALQSGNSQESVTEQDSKDSTYSLSSTLTLSKADYEKHKVYACEVTHQGLSSPVTKSFNRGEC
151 % of control (=100)	GpH7-A5/GpH7-B3 variant K334_07I/GpL16-k0 (antibody, human IgG1, kappa, heterodimerized IgG1, mutation in one H chain only; also called He Ab) heavy 1: not shown heavy 2: not shown light: DIVMTQSPLSLPVTPGEPASISCQASESLVHSNRNTYLHWYLQKPGQSPQLLIYKVSNRFSGVPDRFSGSGSGTDFTLKISRVEAEDVGVYYCSQNTHVPPTFGQGTKVEIERTVAAPSVFIFPPSDEQLKSGTASVVCLLNNFYPREAKVQWKVDNALQSGNSQESVTEQDSKDSTYSLSSTLTLSKADYEKHKVYACEVTHQGLSSPVTKSFNRGEC
106 % of control (=100)	GpH7-A5/GpH7-B3 variant K326_19Q/GpL16-k0 (antibody, human IgG1, kappa, heterodimerized IgG1, mutation in one H chain only; also called He Ab) heavy 1: not shown heavy 2: not shown light: DIVMTQSPLSLPVTPGEPASISCQASESLVHSNRNTYLHWYLQKPGQSPQLLIYKVSNRFSGVPDRFSGSGSGTDFTLKISRVEAEDVGVYYCSQNTHVPPTFGQGTKVEIERTVAAPSVFIFPPSDEQLKSGTASVVCLLNNFYPREAKVQWKVDNALQSGNSQESVTEQDSKDSTYSLSSTLTLSKADYEKHKVYACEVTHQGLSSPVTKSFNRGEC
114 % of control (=100)	GpH7-A5/GpH7-B3 variant K326_08L/GpL16-k0 (antibody, human IgG1, kappa, heterodimerized IgG1, mutation in one H chain only; also called He Ab) heavy 1: not shown heavy 2: not shown light: DIVMTQSPLSLPVTPGEPASISCQASESLVHSNRNTYLHWYLQKPGQSPQLLIYKVSNRFSGVPDRFSGSGSGTDFTLKISRVEAEDVGVYYCSQNTHVPPTFGQGTKVEIERTVAAPSVFIFPPSDEQLKSGTASVVCLLNNFYPREAKVQWKVDNALQSGNSQESVTEQDSKDSTYSLSSTLTLSKADYEKHKVYACEVTHQGLSSPVTKSFNRGEC
115 % of control (=100)	GpH7-A5/GpH7-B3 variant K326_06M/GpL16-k0 (antibody, human IgG1, kappa, heterodimerized IgG1, mutation in one H chain only; also called He Ab) heavy 1: not shown heavy 2: not shown light: DIVMTQSPLSLPVTPGEPASISCQASESLVHSNRNTYLHWYLQKPGQSPQLLIYKVSNRFSGVPDRFSGSGSGTDFTLKISRVEAEDVGVYYCSQNTHVPPTFGQGTKVEIERTVAAPSVFIFPPSDEQLKSGTASVVCLLNNFYPREAKVQWKVDNALQSGNSQESVTEQDSKDSTYSLSSTLTLSKADYEKHKVYACEVTHQGLSSPVTKSFNRGEC
126 % of control (=100)	GpH7-A5/GpH7-B3 variant K326_14T/GpL16-k0 (antibody, human IgG1, kappa, heterodimerized IgG1, mutation in one H chain only; also called He Ab) heavy 1: not shown heavy 2: not shown light: DIVMTQSPLSLPVTPGEPASISCQASESLVHSNRNTYLHWYLQKPGQSPQLLIYKVSNRFSGVPDRFSGSGSGTDFTLKISRVEAEDVGVYYCSQNTHVPPTFGQGTKVEIERTVAAPSVFIFPPSDEQLKSGTASVVCLLNNFYPREAKVQWKVDNALQSGNSQESVTEQDSKDSTYSLSSTLTLSKADYEKHKVYACEVTHQGLSSPVTKSFNRGEC
143 % of control (=100)	GpH7-A5/GpH7-B3 variant K334_08L/GpL16-k0 (antibody, human IgG1, kappa, heterodimerized IgG1, mutation in one H chain only; also called He Ab) heavy 1: not shown heavy 2: not shown light: DIVMTQSPLSLPVTPGEPASISCQASESLVHSNRNTYLHWYLQKPGQSPQLLIYKVSNRFSGVPDRFSGSGSGTDFTLKISRVEAEDVGVYYCSQNTHVPPTFGQGTKVEIERTVAAPSVFIFPPSDEQLKSGTASVVCLLNNFYPREAKVQWKVDNALQSGNSQESVTEQDSKDSTYSLSSTLTLSKADYEKHKVYACEVTHQGLSSPVTKSFNRGEC
181 % of control (=100)	GpH7-A5/GpH7-B3 variant K334_10E/GpL16-k0 (antibody, human IgG1, kappa, heterodimerized IgG1, mutation in one H chain only; also called He Ab) heavy 1: not shown heavy 2: not shown light: DIVMTQSPLSLPVTPGEPASISCQASESLVHSNRNTYLHWYLQKPGQSPQLLIYKVSNRFSGVPDRFSGSGSGTDFTLKISRVEAEDVGVYYCSQNTHVPPTFGQGTKVEIERTVAAPSVFIFPPSDEQLKSGTASVVCLLNNFYPREAKVQWKVDNALQSGNSQESVTEQDSKDSTYSLSSTLTLSKADYEKHKVYACEVTHQGLSSPVTKSFNRGEC
160 % of control (=100)	GpH7-A5/GpH7-B3 variant K334_09D/GpL16-k0 (antibody, human IgG1, kappa, heterodimerized IgG1, mutation in one H chain only; also called He Ab) heavy 1: not shown heavy 2: not shown light: DIVMTQSPLSLPVTPGEPASISCQASESLVHSNRNTYLHWYLQKPGQSPQLLIYKVSNRFSGVPDRFSGSGSGTDFTLKISRVEAEDVGVYYCSQNTHVPPTFGQGTKVEIERTVAAPSVFIFPPSDEQLKSGTASVVCLLNNFYPREAKVQWKVDNALQSGNSQESVTEQDSKDSTYSLSSTLTLSKADYEKHKVYACEVTHQGLSSPVTKSFNRGEC
108 % of control (=100)	GpH7-A5/GpH7-B3 variant I336_14T/GpL16-k0 (antibody, human IgG1, kappa, heterodimerized IgG1, mutation in one H chain only; also called He Ab) heavy 1: not shown heavy 2: not shown light: DIVMTQSPLSLPVTPGEPASISCQASESLVHSNRNTYLHWYLQKPGQSPQLLIYKVSNRFSGVPDRFSGSGSGTDFTLKISRVEAEDVGVYYCSQNTHVPPTFGQGTKVEIERTVAAPSVFIFPPSDEQLKSGTASVVCLLNNFYPREAKVQWKVDNALQSGNSQESVTEQDSKDSTYSLSSTLTLSKADYEKHKVYACEVTHQGLSSPVTKSFNRGEC
134 % of control (=100)	GpH7-A5/GpH7-B3 variant K326_09D/GpL16-k0 (antibody, human IgG1, kappa, heterodimerized IgG1, mutation in one H chain only; also called He Ab) heavy 1: not shown heavy 2: not shown light: DIVMTQSPLSLPVTPGEPASISCQASESLVHSNRNTYLHWYLQKPGQSPQLLIYKVSNRFSGVPDRFSGSGSGTDFTLKISRVEAEDVGVYYCSQNTHVPPTFGQGTKVEIERTVAAPSVFIFPPSDEQLKSGTASVVCLLNNFYPREAKVQWKVDNALQSGNSQESVTEQDSKDSTYSLSSTLTLSKADYEKHKVYACEVTHQGLSSPVTKSFNRGEC
104 % of control (=100)	GpH7-A5/GpH7-B3 variant I336_18N/GpL16-k0 (antibody, human IgG1, kappa, heterodimerized IgG1, mutation in one H chain only; also called He Ab) heavy 1: not shown heavy 2: not shown light: DIVMTQSPLSLPVTPGEPASISCQASESLVHSNRNTYLHWYLQKPGQSPQLLIYKVSNRFSGVPDRFSGSGSGTDFTLKISRVEAEDVGVYYCSQNTHVPPTFGQGTKVEIERTVAAPSVFIFPPSDEQLKSGTASVVCLLNNFYPREAKVQWKVDNALQSGNSQESVTEQDSKDSTYSLSSTLTLSKADYEKHKVYACEVTHQGLSSPVTKSFNRGEC
122 % of control (=100)	GpH7-A5/GpH7-B3 variant K326_03V/GpL16-k0 (antibody, human IgG1, kappa, heterodimerized IgG1, mutation in one H chain only; also called He Ab) heavy 1: not shown heavy 2: not shown light: DIVMTQSPLSLPVTPGEPASISCQASESLVHSNRNTYLHWYLQKPGQSPQLLIYKVSNRFSGVPDRFSGSGSGTDFTLKISRVEAEDVGVYYCSQNTHVPPTFGQGTKVEIERTVAAPSVFIFPPSDEQLKSGTASVVCLLNNFYPREAKVQWKVDNALQSGNSQESVTEQDSKDSTYSLSSTLTLSKADYEKHKVYACEVTHQGLSSPVTKSFNRGEC
150 % of control (=100)	GpH7-A5/GpH7-B3 variant K334_03V/GpL16-k0 (antibody, human IgG1, kappa, heterodimerized IgG1, mutation in one H chain only; also called He Ab) heavy 1: not shown heavy 2: not shown light: DIVMTQSPLSLPVTPGEPASISCQASESLVHSNRNTYLHWYLQKPGQSPQLLIYKVSNRFSGVPDRFSGSGSGTDFTLKISRVEAEDVGVYYCSQNTHVPPTFGQGTKVEIERTVAAPSVFIFPPSDEQLKSGTASVVCLLNNFYPREAKVQWKVDNALQSGNSQESVTEQDSKDSTYSLSSTLTLSKADYEKHKVYACEVTHQGLSSPVTKSFNRGEC
102 % of control (=100)	GpH7-A5/GpH7-B3 variant I336_13S/GpL16-k0 (antibody, human IgG1, kappa, heterodimerized IgG1, mutation in one H chain only; also called He Ab) heavy 1: not shown heavy 2: not shown light: DIVMTQSPLSLPVTPGEPASISCQASESLVHSNRNTYLHWYLQKPGQSPQLLIYKVSNRFSGVPDRFSGSGSGTDFTLKISRVEAEDVGVYYCSQNTHVPPTFGQGTKVEIERTVAAPSVFIFPPSDEQLKSGTASVVCLLNNFYPREAKVQWKVDNALQSGNSQESVTEQDSKDSTYSLSSTLTLSKADYEKHKVYACEVTHQGLSSPVTKSFNRGEC
112 % of control (=100)	GpH7-A5/GpH7-B3 variant K326_15Y/GpL16-k0 (antibody, human IgG1, kappa, heterodimerized IgG1, mutation in one H chain only; also called He Ab) heavy 1: not shown heavy 2: not shown light: DIVMTQSPLSLPVTPGEPASISCQASESLVHSNRNTYLHWYLQKPGQSPQLLIYKVSNRFSGVPDRFSGSGSGTDFTLKISRVEAEDVGVYYCSQNTHVPPTFGQGTKVEIERTVAAPSVFIFPPSDEQLKSGTASVVCLLNNFYPREAKVQWKVDNALQSGNSQESVTEQDSKDSTYSLSSTLTLSKADYEKHKVYACEVTHQGLSSPVTKSFNRGEC
147 % of control (=100)	GpH7-A5/GpH7-B3 variant K334_02A/GpL16-k0 (antibody, human IgG1, kappa, heterodimerized IgG1, mutation in one H chain only; also called He Ab) heavy 1: not shown heavy 2: not shown light: DIVMTQSPLSLPVTPGEPASISCQASESLVHSNRNTYLHWYLQKPGQSPQLLIYKVSNRFSGVPDRFSGSGSGTDFTLKISRVEAEDVGVYYCSQNTHVPPTFGQGTKVEIERTVAAPSVFIFPPSDEQLKSGTASVVCLLNNFYPREAKVQWKVDNALQSGNSQESVTEQDSKDSTYSLSSTLTLSKADYEKHKVYACEVTHQGLSSPVTKSFNRGEC
